In the DeepSol protein solubility set:

Test: soluble on expression in E. coli; label from the status in PepcDB or PDB records

Sequence	soluble on expression in E. coli
MGMELILREWMGKEKDYSISYSTYMNLVLYTEGHGYYMKEREKIGRQGDFFTSSNVSSVFAKTFAKLFIRLVENGEVASNICEVGGGTGKFAYDVLQEWKQLSPNTFINLNYSMIEVSPFHRKLQQEQLGSFSNVSYYTSYSEMGDSFEGILFSNELFDAFPVEVIEKRNGILYEVRITYTEEGNLSEVCRPLNKRIGRYLLKYNIHIAEGQRFEVPIVMEEYIKEISKWFQKGICITVDYGYTKEEWMHPAHREGSLRGYYQHKLMRNPLAHPGEMDLTTHVHWDELKEMFSMQGMSAVWHKKQSEFLLAAGILEQLTSHQDTNPFSETQKQNRAVRSMILNGGVGSSFDVVIHTKDMQHLHLDQYVTILEHHHHHH	soluble
MASKLRRYIMNTTSLSLTPLLRHSVGFERFNDLFESMRNADDSTYAYPAYDIEKHGEDSYTITMAVPGFQESDLNIMVQNDQLTVSGRIQEKETKESEYLHRSIVTRAFEQTFRLADHMQVTGAEIKNGLLSIGLIREIPEEAKPRIIPIKSISDQESNKKGKTLEPESKKKISN	not soluble
MGHHHHHHSHNTALVLCPFKDSGCKHRCPKLAMARHVEESVKPHLAMMCALVSRQRQELQELRRELEELSVGSDGVLIWKIGSYGRRLQEAKAKPNLECFSPAFYTHKYGYKLQVSAFLNGNGSGEGTHLSLYIRVLPGAFDNLLEWPFARRVTFSLLDQSDPGLAKPQHVTETFHPDPNWKNFQKPGTWRGSLDESSLGFGYPKFISHQDIRKRNYVRDDAVFIRAAVELPRKILS	not soluble
KLTKSDLDILNSMKNVVDGIARMYGEHTEVVLHSLDAEAPEIIKIANGHVTERSEGAPITNLARMKLREGKDVSDSYLTKTSNGKTLHSITTIVRNPKNKPIGLLCINVDMDAPMQAFLKAMLPQQHTECCVGGAR	not soluble
MGSDKIHHHHHHMASYSLVESNSFGSENWCLKLQPSYKHGLLTGLSNGEIRLLDWSTGKSVQKIKASETAINDMKVIGSDFSAGHLVSSASIDAVKVFDIRTNDRIAQIQNEANSPFISLDSRHGLLACGTELQGIDAAVYIYDIRKWDTPLRSLIDSHHDDVTCIKFHPSDVNILLSGSTDGYTNIYDLKQDEEEDALHQVINYASIHSCGWLSPKRIFTLSHMETFAIHELNDKSDELKEPQPLDFGDVREIWNCDYVVDIYPGLIATGKTQENCGELCLLPFKDEKVDTENGIVIPHAHGDEVVRDIFIPAQHSNMLYSCGEDGCVKIWENKQGPLDIPENFWDYSKKMNVLGDDDREGSINLDEPLIIQKESVSTRPRKEKHKKAKKHSMKSRFKPY	not soluble
MVGAHQMKSEEQANMQLQQQAVLGLNWMQDSGEYKALAYQAYNAAKVAFDHAKVAKGKKKAVVADLDETMLDNSPYAGWQVQNNKPFDGKDWTRWVDARQSRAVPGAVEFNNYVNSHKGKVFYVTNRKDSSEKAGTIDDMKRLGFNGVEESAFYLKKDKSAKAARFAEIEKQGYEIVLYVGDNLDDFGNTVYGKLNADRRAFVDQNQGKFGKTFIMLPNANYGGWEGGLAEGYFKKDTQGQIKARLDAVQAWDGK	soluble
APTAPSIDMYGSNNLQFSKIELAMETTSGYNDMVKYHELAKIKVKFNQWSGTSGDTYNVYFDGVKVATGAITGSQTTASFEYGQGGLYQMEIEACDATGCSKSAPVEITIADTDGSHLKPLTMNVDPNNKSYNTDPSIVMGTYFVEWGIYGRDYTVDNMPVDNLTHILYGFIPICGPNESVKSVGGNSFNALQTACRGVNDYEVVIHDPWAAYQKSFPQAGHEYSTPIKGNYAMLMALKQRNPDLKIIPSIGGWTLSDPFYDFVDKKNRDTFVASVKKFLKTWKFYDGVDIDWEFPGGGGAAADKGDPVNDGPAYIALMRELRVMLDELEAETGRTYELTSAIGVGYDKIEDVDYADAVQYMDYIFAMTYDFYGGWNNVPGHQTALYCGSFMRPGQCDGGGVDENGEPYKGPAYTADNGIQLLLAQGVPANKLVLGTAMYGRGWEGVTPDTLTDPNDPMTGTATGKLKGSTAQGVWEDGVIDYKGIKSFMLGANNTGINGFEYGYDAQAEAPWVWNRSTGELITFDDHRSVLAKGNYAKSLGLAGLFSWEIDADNGDILNAMHEGMAGGVVTPPNRRSHHHHHH	soluble
LVPRGSDSSRRQYQEKYKQVEQYMSFHKLPADFRQKIHDYYEHRYQGKMFDEDSILGELNGPLREEIVNFNNRKLVASMPLFANADPNFVTAMLTKLKFEVFQPGDYIIREGTIGKKMYFIQHGVVSVLTKGNKEMKLSDGSYFGEISLLTRGRRTASVRADTYSRLYSLSVDNFNEVLEEYPMMRRAFETVAIDRLDRIGKKN	soluble
MGSDKIHHHHHHMPRSPSSQYLAIESLSRYAREERESALGIIRNVLQMSDIAPGRFNAAMQAVAMHGRIALHFHPDRFDSRGLTVAEGLLQDGRYRCQFETHISSGLLSPEIGGARDHWERQFFRELTTDIAARPKYGALDLLLAPNGPAPRFGSCYFLTKPEVLSRATFCFNDSYRNPRDKGTADAFEMVMAALLTESFERRYALGEHGLAPAKLVERLVSTLGEDIVMRFERGLSGNLDHYIEAQIHGPLSLAEDMEALVADPSFRGTEIEPLLRSIAERYQIALYWHSGLCLDVEHVVRDFRGAGMPSLAQRLAIDGNVTAYAIGVAAREVSRFPTRWRARGHKTEVLSELKWLWHLLVRYGAARDERETSFMLDESAPLQENVQAEPGGNDATCVQGTCKEEGFEASVTTEGAHTADAAAAVKDNSAS	not soluble
MSLIDFHFHAPVKEFLDFLGEFGEPAIKYFNAKVEVKGLKETLDYYESFGIKRFVVLPIDSTTFLGRRIPNQVINLDDRIVKFISVDPSKPNADEELKRSIKEFEPVGVKLHPQLQGFHPLDERALKIYEIIDNHGLIVVFHTGTSGIGAGVKSSIRLDYGRPIYFDEIAVRFQNMKIILAHFGWPWTEEAIAIALHKPNVYLDLSGWAPRYIPQVIWSNAKRLSDKLLFGSDFPLIRPERWLEEFKSVNLSQDIKDKILKHNAEKLVKKSEGHHHHHH	not soluble
MTLISPELKTQGFYASSYKGTDLIGLTKHYFREKHMKQLMLTLGIVNTYDKIKVLDAHYRAIARAAPICHAFGFHLALYDFPFKMTAEELVAFVMEKTTIGESGSYLKILYEKNHLSVSDLPKKGFPSQFGETVITTSKPDPKRKVMPVKIAEEALHNRSFLFLVGLGHKGLPKELFERGKYHLDITSKGLSLETCTAIGAVPAHLAGLMENLRCKK	not soluble
MLTYYRDLFSLKLASCLDMEYSSFENATKINFREFFPEARSLTFSKKPDAKQGMQGGGMLKMLIDEKETIFYIKAFTGLNEENAIKLNELVVCKILHRMGKGPNYWFYINNHFSKKAVYMASKEVVGCG	not soluble
MSKPYLAGLLLISPWALAASGSWSSESFGGTMTRGQQSVKSKPLQSPSPLPPGARATTVHWKIKTDGLTPSGLRIRLCNAARCVRLAGWAGEMPLPAGIAPEGPFRFEYHASEAGTLRSPVTILSNQLTVSYHSSH	not soluble
MAGWRTVVVNTHSKLSYKNNHLIFKDAYKTELIHLSEIDILLLETTDIVLSTMLVKRLVDENVLVIFCDDKRLPTAMLMPFYGRHDSSLQLGKQMSWSETVKSQVWTTIIAQKILNQSCYLGACSYFEKSQSIMDLYHGLENFDPSNREGHAARIYFNTLFGNDFSRDLEHPINAGLDYGYTLLLSMFAREVVVSGCMTQFGLKHANQFNQFNFASDIMEPFRPLVDKIVYENRNQPFPKIKRELFTLFSDTFSYNGKEMYLTNIISDYTKKVVKALNNEGKGVPEFRI	not soluble
MAHHHHHHMRPSHKRQAQRQHPRQQCSVAHKAQRAPSSVHGTSGVEHLPRDAVVHVALRKQHRPAGQAHRRIKRHRVVPRRHKVAPHKYHSGARHAHSPTHRHRVLAQQEVAVNKRRNRAANCRNTALHRHAQPQRRLHKKPVHVQRTARRQRHAANHQHANSVAEHRRQLRARDVQHAPRQIHVV	soluble
MGSDKIHHHHHHMVNFLNEGGYVLDFSTADFDAFTYKSIGVPLCETYRLSKGKSLIAYINDTKYEDKIKLLSDLIRYYELSSMKEHDEENRKSRAVAYKKCRSILDKAGGTMVMTATAETLKEAFDSDYISAQIDLMLNLKDGNPTEAIGKAKELIESCCKTILEFEGCTVDKDWEVPRLVDETFKHFHLMPKNISDDVKGAKSIKAILGNLKAIAQGVAELRNLYGSGHGKSSSYKGLESRHASLAIGSSTTLVRFLWDSYERHHNNEVN	not soluble
